This note sets out measurements from publication PMC2104711 (The EMBO Journal, 2007).

The target of this test is human XLF/Cernunnos (1–233), tag-free (cleaved XLF441) (human, UniProt Q9H9Q4 1-233). In words: SPR. (In SPR one partner is held on a chip, and binding of the other changes the refractive index at the surface.)
Sequence of human XLF/Cernunnos (1–233), tag-free (cleaved XLF441) (Q9H9Q4 1-233): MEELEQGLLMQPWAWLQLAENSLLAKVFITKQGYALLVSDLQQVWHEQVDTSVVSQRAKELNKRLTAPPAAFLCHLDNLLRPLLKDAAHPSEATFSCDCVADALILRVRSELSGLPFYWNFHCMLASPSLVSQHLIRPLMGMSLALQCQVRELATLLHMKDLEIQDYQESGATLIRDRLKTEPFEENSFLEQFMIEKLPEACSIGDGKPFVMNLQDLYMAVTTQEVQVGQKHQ

B1: XRCC4 (1–213) with N-terminal His6 tag (domain or fragment, UniProt Q13426 1-213, looked up)
chain: MERKISRIHLVSEPSITHFLQVSWEKTLESGFVITLTDGHSAWTGTVSESEISQEADDMAMEKGKYVGELRKALLSGAGPADVYTFNFSKESCYFFFEKNLKDVSFRLGSFNLEKVENPAEVIRELICYCLDTIAENQAKNEHLQKENERLLRDWNDVQGRFEKCVSAKEALETDLYKRFILVLNEKKTKIRSLHNKLLNAAQEREKDIKQEG
As a reminder, the Kd is the constant that tells how readily two partners part at equilibrium. High values mean a looser complex, low ones a tighter complex. Take B1: the affinity, expressed as Kd, was 7.8 µM.
